# Assay results from the supplement of paper PMC10724198.
# ± gives the standard deviation of the averaged measurements.
# System: Saccharomyces cerevisiae
# Experiment: protein stability index of tFT-peptide fusion (C-terminal peptide) (PSI (0-1 scale)); higher = more stable (slower turnover)
# Conditions: genetic background: doa10 deletion; temperature: 30 C
# Method: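 MPS profiling in S. cerevisiae of the tFT-X12 degron library: putative degron peptides plus stable controls, 12 aa, fused to the C-terminus of a sfGFP-mCherry timer. Cells are FACS-sorted into 8 mCherry/sfGFP bins and deep-sequenced. PSI runs from 0 (unstable) to 1 (stable). Backgrounds are wild type, das1Δ and doa10Δ at 30 °C, and wild type, das1Δ, cdc34-1 and cdc53-1 at 37 °C; 2-3 technical replicates each.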
# 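Also: PSI is a weighted mean of sequencing reads over stability bins, variants kept only with over 10 reads, mCherry proximal and sfGFP distal, peptide attached via GGGS linker.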
row,Sequence,protein stability index
1,CFPFYVSCLLVL,0.25 ± 0.0066
2,CFTLSLCLAFFF,0.324 ± 0.017
3,CGLLSALSCLVF,0.4185 ± 0.0022
4,CIVFVYCLFSCP,0.209 ± 0.0024
5,CKRWGVVSYVFV,0.418 ± 0.025
6,CLCFFLICFILF,0.248 ± 0.0026
7,CLCFFMSILWWV,0.422 ± 0.015
8,CLCVLVSFFFGL,0.316 ± 0.024
9,CLFHQFITLLVN,0.0508 ± 0.017
10,CLFLNCRFYMFL,0.788 ± 0.014
11,CLFSPFCFILFC,0.285 ± 0.021
12,CLTGWFGIFSAP,0.695 ± 0.015
13,CMIACYALLRLL,0.0799 ± 0.021
14,CPALYMPPPVLV,0.14 ± 0.03
15,CPPPPPSLLLLC,0.168 ± 0.0086
16,CRLCVFGVWFCG,0.448 ± 0.037

row,Sequence,protein stability index
1,CSPAFRPIVFVL,0.1802 ± 0.00032
2,CSVPLGVFAIVV,0.347 ± 0.0035
3,CSYPTLSMYSTT,0.665 ± 0.007
4,CTFFCICVFFLL,0.267 ± 0.012
5,CTLVVGLFVLVV,0.168 ± 0.0065
6,FFCRWGSTVTLL,0.4076 ± 0.001
7,GAVRGWGWVSFV,0.357 ± 0.054
8,GFYQSGGLVVVV,0.482 ± 0.017
9,GGGGGGGDVLVW,0.202 ± 0.022
10,LPLPPPGSPPPL,0.659 ± 0.014
11,PSLVFLPPPPPR,0.681 ± 0.018
12,RDTTQRRRKTAA,0.443 ± 0.0084
13,RWRLWGGWWVVG,0.191 ± 0.019
14,TGPVFVSFRLLH,0.384 ± 0.015
15,TLDCKFGRGGIG,0.325 ± 0.0077
16,WLFAILPSRLIA,0.0644 ± 0.0086

# Same assay, conditions: genetic background: wild type; temperature: 30 C
row,Sequence,protein stability index
1,ACFLFPSHLLIS,0.181 ± 0.011
2,AFCGRRGHQFYN,0.164 ± 0.014
3,AFRFFWFFFFTS,0.426 ± 0.017
4,AFSISPFRLRMV,0.293 ± 0.022
5,AFWLFSGIARLA,0.277 ± 0.011
6,AGESLRAIAVLY,0.292 ± 0.018
7,AGLTLLWPLCLL,0.265 ± 0.034
8,AGTLLLGYGILA,0.349 ± 0.023
9,AGVRCPLFWLVC,0.138 ± 0.0075
10,AHPTLILTNKIA,0.104 ± 0.044
11,ALLIYFLCRCIP,0.33 ± 0.035
12,APLFPPPPARSL,0.677 ± 0.03
13,ARRFLVRRFILF,0.189 ± 0.021
14,ASHLGLGCLVVC,0.408 ± 0.02
15,AVRLPFPLLVHL,0.276 ± 0.053
16,AVVCSRLVLFCL,0.446 ± 0.025
17,AYSVIPSLALLP,0.632 ± 0.01
18,CALLLLSVRAGQ,0.433 ± 0.024
19,CCSRFLMLRILV,0.1 ± 0.0099
20,CFFFCSLFLSFL,0.35 ± 0.0098
21,CFFMVGFVFYFV,0.294 ± 0.03
22,CFFSLLLLIFSV,0.31 ± 0.017
23,CFLLVSLGILCW,0.106 ± 0.034
24,CFPFYVSCLLVL,0.256 ± 0.02
25,CFTLSLCLAFFF,0.334 ± 0.026
26,CGLLSALSCLVF,0.45 ± 0.017
27,CIVFVYCLFSCP,0.207 ± 0.036
28,CKRWGVVSYVFV,0.441 ± 0.024

row,Sequence,protein stability index
1,CLCFFLICFILF,0.219 ± 0.032
2,CLCFFMSILWWV,0.374 ± 0.019
3,CLCVLVSFFFGL,0.323 ± 0.027
4,CLFHQFITLLVN,0.0593 ± 0.0052
5,CLFLNCRFYMFL,0.796 ± 0.036
6,CLFSPFCFILFC,0.074 ± 0.011
7,CLTGWFGIFSAP,0.688 ± 0.027
8,CMIACYALLRLL,0.0777 ± 0.016
9,CPALYMPPPVLV,0.182 ± 0.015
10,CPPPPPSLLLLC,0.19 ± 0.013
11,CRLCVFGVWFCG,0.412 ± 0.022
12,CSPAFRPIVFVL,0.163 ± 0.016
13,CSVPLGVFAIVV,0.365 ± 0.038
14,CSYPTLSMYSTT,0.645 ± 0.013
15,CTFFCICVFFLL,0.281 ± 0.022
16,CTLVVGLFVLVV,0.216 ± 0.028
17,FFCRWGSTVTLL,0.427 ± 0.01
18,GAVRGWGWVSFV,0.317 ± 0.04
19,GFYQSGGLVVVV,0.515 ± 0.013
20,GGGGGGGDVLVW,0.244 ± 0.034
21,LPLPPPGSPPPL,0.682 ± 0.033
22,PSLVFLPPPPPR,0.701 ± 0.025
23,RDTTQRRRKTAA,0.448 ± 0.012
24,RWRLWGGWWVVG,0.196 ± 0.022
25,TGPVFVSFRLLH,0.405 ± 0.035
26,TLDCKFGRGGIG,0.321 ± 0.013
27,WLFAILPSRLIA,0.0673 ± 0.012

# Same assay, conditions: genetic background: wild type; temperature: 37 C
row,Sequence,protein stability index
1,ACFLFPSHLLIS,0.3022 ± 0.0017
2,AFCGRRGHQFYN,0.42 ± 0.027
3,AFRFFWFFFFTS,0.557 ± 0.018
4,AFSISPFRLRMV,0.541 ± 0.0024
5,AFWLFSGIARLA,0.5014 ± 0.0035
6,AGESLRAIAVLY,0.47738 ± 0.00044
7,AGLTLLWPLCLL,0.353 ± 0.013
8,AGTLLLGYGILA,0.486 ± 0.0055
9,AGVRCPLFWLVC,0.148 ± 0.01
10,AHPTLILTNKIA,0.121 ± 0.023
11,ALLIYFLCRCIP,0.483 ± 0.032
12,APLFPPPPARSL,0.688 ± 0.041
13,ARRFLVRRFILF,0.326 ± 0.033
14,ASHLGLGCLVVC,0.579 ± 0.021
15,AVRLPFPLLVHL,0.337 ± 0.029
16,AVVCSRLVLFCL,0.588 ± 0.021
17,AYSVIPSLALLP,0.706 ± 0.0094

row,Sequence,protein stability index
1,CALLLLSVRAGQ,0.565 ± 0.02
2,CCSRFLMLRILV,0.126 ± 0.0093
3,CFFFCSLFLSFL,0.431 ± 0.015
4,CFFMVGFVFYFV,0.438 ± 0.0094
5,CFFSLLLLIFSV,0.4476 ± 0.0032
6,CFLLVSLGILCW,0.0931 ± 0.026
7,CFPFYVSCLLVL,0.351 ± 0.0055
8,CFTLSLCLAFFF,0.4091 ± 0.0024
9,CGLLSALSCLVF,0.552 ± 0.023
10,CIVFVYCLFSCP,0.332 ± 0.027
11,CKRWGVVSYVFV,0.61 ± 0.0099
12,CLCFFLICFILF,0.333 ± 0.016
13,CLCFFMSILWWV,0.478 ± 0.0048
14,CLCVLVSFFFGL,0.4768 ± 0.0016
15,CLFHQFITLLVN,0.0523 ± 0.01
16,CLFLNCRFYMFL,0.905 ± 0.011
17,CLFSPFCFILFC,0.0686 ± 0.019
